Reference: paper PMC9482650, “Quantitative fragmentomics allow affinity mapping of interactomes” (Nature Communications, 2022)

T1: PDZRN3_2, Q9UPQ7
T1 sequence (Q9UPQ7 414-513, limits assumed, looked up): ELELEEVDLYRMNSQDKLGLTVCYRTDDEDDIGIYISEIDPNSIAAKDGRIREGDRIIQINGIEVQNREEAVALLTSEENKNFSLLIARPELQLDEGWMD

T2: LIN7C, Q9NUP9
T2 sequence (Q9NUP9 88-185, limits assumed, looked up): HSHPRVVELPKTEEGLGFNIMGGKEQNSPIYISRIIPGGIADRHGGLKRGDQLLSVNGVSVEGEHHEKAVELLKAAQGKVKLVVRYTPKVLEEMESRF

T3: PDZD2_1, O15018
T3 sequence (O15018 80-192, limits assumed, looked up): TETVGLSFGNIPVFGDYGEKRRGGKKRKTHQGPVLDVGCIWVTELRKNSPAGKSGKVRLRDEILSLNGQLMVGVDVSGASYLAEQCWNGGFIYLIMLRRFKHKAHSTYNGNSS

T4: PARD6G, Q9BYG4
T4 sequence (Q9BYG4 153-261, limits assumed, looked up): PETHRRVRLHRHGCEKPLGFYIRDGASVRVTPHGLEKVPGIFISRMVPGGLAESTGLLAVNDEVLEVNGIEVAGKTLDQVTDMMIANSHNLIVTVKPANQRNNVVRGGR

T5: MPP5, Q8N3R9
T5 sequence (Q8N3R9 251-346, limits assumed, looked up): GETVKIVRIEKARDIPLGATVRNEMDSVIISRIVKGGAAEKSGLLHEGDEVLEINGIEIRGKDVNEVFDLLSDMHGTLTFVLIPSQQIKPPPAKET

T6: USH1C_3, Q9Y6N9
T6 sequence (Q9Y6N9 447-547, limits assumed, looked up): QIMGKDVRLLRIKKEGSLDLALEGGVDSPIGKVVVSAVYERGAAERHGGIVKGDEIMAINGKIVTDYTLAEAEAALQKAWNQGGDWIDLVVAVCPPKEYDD

T7: PDZD11, Q5EBL8
T7 sequence (Q5EBL8 42-139, limits assumed, looked up): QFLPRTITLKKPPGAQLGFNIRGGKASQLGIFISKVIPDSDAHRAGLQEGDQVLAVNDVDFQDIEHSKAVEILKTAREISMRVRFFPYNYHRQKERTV

T8: MPDZ_7, O75970
T8 sequence (O75970 1146-1253, limits assumed, looked up): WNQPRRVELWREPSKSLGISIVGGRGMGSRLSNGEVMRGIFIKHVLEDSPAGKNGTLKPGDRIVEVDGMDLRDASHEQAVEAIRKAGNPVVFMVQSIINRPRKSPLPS

T9: PDLIM3, Q53GG5
T9 sequence (Q53GG5 1-94, limits assumed, looked up): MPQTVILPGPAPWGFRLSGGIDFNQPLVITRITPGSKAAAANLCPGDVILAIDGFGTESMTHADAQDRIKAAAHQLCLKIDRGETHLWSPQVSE

T10: NHERF3_2, Q5T2W1
T10 sequence (Q5T2W1 129-225, limits assumed, looked up): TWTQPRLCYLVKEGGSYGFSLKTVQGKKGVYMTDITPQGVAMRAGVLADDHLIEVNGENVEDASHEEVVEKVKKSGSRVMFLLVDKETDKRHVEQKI

T11: DFNB31_2, Q9P202
T11 sequence (Q9P202 274-371, limits assumed, looked up): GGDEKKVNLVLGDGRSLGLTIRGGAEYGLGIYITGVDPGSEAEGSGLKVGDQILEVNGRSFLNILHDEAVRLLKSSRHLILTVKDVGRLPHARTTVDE

T12: USH1C_1, Q9Y6N9
T12 sequence (Q9Y6N9 82-179, limits assumed, looked up): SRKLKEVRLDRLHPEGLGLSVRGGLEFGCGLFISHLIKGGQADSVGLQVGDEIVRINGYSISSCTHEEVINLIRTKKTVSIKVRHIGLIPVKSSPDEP

T13: MPDZ_3, O75970
T13 sequence (O75970 372-473, limits assumed, looked up): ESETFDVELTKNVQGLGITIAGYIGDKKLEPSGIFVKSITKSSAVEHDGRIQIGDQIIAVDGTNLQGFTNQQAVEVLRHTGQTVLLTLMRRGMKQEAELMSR

T14: SYNPO2L, Q9H987
T14 sequence (Q9H987 1-98, limits assumed, looked up): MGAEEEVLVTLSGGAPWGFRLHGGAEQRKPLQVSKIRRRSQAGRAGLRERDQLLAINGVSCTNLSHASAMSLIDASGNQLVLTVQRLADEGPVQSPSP


biological target: T1, PDZRN3_2, Q9UPQ7; assay: holdup assay; design: key: below the threshold = too weak to quantify, mostly under pKd 3.1 to 4; settings: plain residues with an end cap or a label only (N-terminal biotin on a linker: ttds)

Binder	pKd
HIVEALETDV [PBK, Q96KB5]	below the threshold

biological target: T2, LIN7C, Q9NUP9; assay: holdup assay; design: key: below the threshold = too weak to quantify, mostly under pKd 3.1 to 4; settings: plain residues with an end cap or a label only (N-terminal biotin on a linker: ttds)

Binder	pKd
HIVEALETDV [PBK, Q96KB5]	4.05

biological target: T3, PDZD2_1, O15018; assay: holdup assay; design: key: below the threshold = too weak to quantify, mostly under pKd 3.1 to 4; settings: plain residues with an end cap or a label only (N-terminal biotin on a linker: ttds)

Binder	pKd
HIVEALETDV [PBK, Q96KB5]	below the threshold

biological target: T4, PARD6G, Q9BYG4; assay: holdup assay; design: key: below the threshold = too weak to quantify, mostly under pKd 3.1 to 4; settings: plain residues with an end cap or a label only (N-terminal biotin on a linker: ttds)

Binder	pKd
HIVEALETDV [PBK, Q96KB5]	below the threshold

biological target: MAGI3_6, Q5TCQ9; assay: holdup assay; design: key: below the threshold = too weak to quantify, mostly under pKd 3.1 to 4; settings: plain residues with an end cap or a label only (N-terminal biotin on a linker: ttds)
Sequence (Q5TCQ9 1014-1103): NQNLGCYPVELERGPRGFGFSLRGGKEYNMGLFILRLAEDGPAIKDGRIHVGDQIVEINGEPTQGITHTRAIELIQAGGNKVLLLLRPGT

Binder	pKd
HIVEALETDV [PBK, Q96KB5]	4.62

biological target: T5, MPP5, Q8N3R9; assay: holdup assay; design: key: below the threshold = too weak to quantify, mostly under pKd 3.1 to 4; settings: plain residues with an end cap or a label only (N-terminal biotin on a linker: ttds)

Binder	pKd
HIVEALETDV [PBK, Q96KB5]	below the threshold

biological target: T6, USH1C_3, Q9Y6N9; assay: holdup assay; design: key: below the threshold = too weak to quantify, mostly under pKd 3.1 to 4; settings: plain residues with an end cap or a label only (N-terminal biotin on a linker: ttds)

Binder	pKd
HIVEALETDV [PBK, Q96KB5]	below the threshold

biological target: T7, PDZD11, Q5EBL8; assay: holdup assay; design: key: below the threshold = too weak to quantify, mostly under pKd 3.1 to 4; settings: plain residues with an end cap or a label only (N-terminal biotin on a linker: ttds)

Binder	pKd
HIVEALETDV [PBK, Q96KB5]	below the threshold

biological target: T8, MPDZ_7, O75970; assay: holdup assay; design: key: below the threshold = too weak to quantify, mostly under pKd 3.1 to 4; settings: plain residues with an end cap or a label only (N-terminal biotin on a linker: ttds)

Binder	pKd
HIVEALETDV [PBK, Q96KB5]	below the threshold

biological target: PDZRN4_2, Q6ZMN7; assay: holdup assay; design: key: below the threshold = too weak to quantify, mostly under pKd 3.1 to 4; settings: plain residues with an end cap or a label only (N-terminal biotin on a linker: ttds)
Sequence (Q6ZMN7 389-498): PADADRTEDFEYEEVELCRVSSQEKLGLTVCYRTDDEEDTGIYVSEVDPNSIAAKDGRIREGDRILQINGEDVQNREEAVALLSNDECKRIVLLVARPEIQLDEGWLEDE

Binder	pKd
HIVEALETDV [PBK, Q96KB5]	below the threshold

biological target: T9, PDLIM3, Q53GG5; assay: holdup assay; design: key: below the threshold = too weak to quantify, mostly under pKd 3.1 to 4; settings: plain residues with an end cap or a label only (N-terminal biotin on a linker: ttds)

Binder	pKd
HIVEALETDV [PBK, Q96KB5]	below the threshold

biological target: T10, NHERF3_2, Q5T2W1; assay: holdup assay; design: key: below the threshold = too weak to quantify, mostly under pKd 3.1 to 4; settings: plain residues with an end cap or a label only (N-terminal biotin on a linker: ttds)

Binder	pKd
HIVEALETDV [PBK, Q96KB5]	below the threshold

biological target: T11, DFNB31_2, Q9P202; assay: holdup assay; design: key: below the threshold = too weak to quantify, mostly under pKd 3.1 to 4; settings: plain residues with an end cap or a label only (N-terminal biotin on a linker: ttds)

Binder	pKd
HIVEALETDV [PBK, Q96KB5]	below the threshold

biological target: NHERF2_1, Q15599; assay: holdup assay; design: key: below the threshold = too weak to quantify, mostly under pKd 3.1 to 4; settings: plain residues with an end cap or a label only (N-terminal biotin on a linker: ttds)
Sequence (Q15599 9-91): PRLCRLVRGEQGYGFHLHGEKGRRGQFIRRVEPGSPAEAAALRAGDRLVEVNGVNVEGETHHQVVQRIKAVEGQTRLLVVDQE

Binder	pKd
HIVEALETDV [PBK, Q96KB5]	below the threshold

biological target: T12, USH1C_1, Q9Y6N9; assay: holdup assay; design: key: below the threshold = too weak to quantify, mostly under pKd 3.1 to 4; settings: plain residues with an end cap or a label only (N-terminal biotin on a linker: ttds)

Binder	pKd
HIVEALETDV [PBK, Q96KB5]	below the threshold

biological target: Inadl_7, Q8NI35; assay: holdup assay; design: key: below the threshold = too weak to quantify, mostly under pKd 3.1 to 4; settings: plain residues with an end cap or a label only (N-terminal biotin on a linker: ttds)
Sequence (Q8NI35 1219-1332): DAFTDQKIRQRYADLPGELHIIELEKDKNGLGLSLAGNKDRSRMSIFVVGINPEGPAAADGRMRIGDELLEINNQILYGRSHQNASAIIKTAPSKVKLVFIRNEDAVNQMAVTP

Binder	pKd
HIVEALETDV [PBK, Q96KB5]	4.4

biological target: PTPN13_2, Q12923; assay: holdup assay; design: key: below the threshold = too weak to quantify, mostly under pKd 3.1 to 4; settings: plain residues with an end cap or a label only (N-terminal biotin on a linker: ttds)
Sequence (Q12923 1363-1462): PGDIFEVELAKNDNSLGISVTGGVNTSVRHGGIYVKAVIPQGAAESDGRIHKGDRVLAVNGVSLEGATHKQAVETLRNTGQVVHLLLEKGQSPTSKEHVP

Binder	pKd
HIVEALETDV [PBK, Q96KB5]	below the threshold

biological target: RIMS2, Q9UQ26; assay: holdup assay; design: key: below the threshold = too weak to quantify, mostly under pKd 3.1 to 4; settings: plain residues with an end cap or a label only (N-terminal biotin on a linker: ttds)
Sequence (Q9UQ26 637-758): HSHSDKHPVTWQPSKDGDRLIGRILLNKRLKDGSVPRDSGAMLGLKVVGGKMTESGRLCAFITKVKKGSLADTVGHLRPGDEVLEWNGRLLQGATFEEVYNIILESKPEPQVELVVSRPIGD

Binder	pKd
HIVEALETDV [PBK, Q96KB5]	below the threshold

biological target: MAGI3_4, Q5TCQ9; assay: holdup assay; design: key: below the threshold = too weak to quantify, mostly under pKd 3.1 to 4; settings: plain residues with an end cap or a label only (N-terminal biotin on a linker: ttds)
Sequence (Q5TCQ9 716-815): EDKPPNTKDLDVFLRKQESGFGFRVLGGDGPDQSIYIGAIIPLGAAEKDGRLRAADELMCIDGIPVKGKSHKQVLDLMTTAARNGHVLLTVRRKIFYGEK

Binder	pKd
HIVEALETDV [PBK, Q96KB5]	below the threshold

biological target: T13, MPDZ_3, O75970; assay: holdup assay; design: key: below the threshold = too weak to quantify, mostly under pKd 3.1 to 4; settings: plain residues with an end cap or a label only (N-terminal biotin on a linker: ttds)

Binder	pKd
HIVEALETDV [PBK, Q96KB5]	below the threshold

biological target: CNKSR3, Q6P9H4; assay: holdup assay; design: key: below the threshold = too weak to quantify, mostly under pKd 3.1 to 4; settings: plain residues with an end cap or a label only (N-terminal biotin on a linker: ttds)
Sequence (Q6P9H4 203-303): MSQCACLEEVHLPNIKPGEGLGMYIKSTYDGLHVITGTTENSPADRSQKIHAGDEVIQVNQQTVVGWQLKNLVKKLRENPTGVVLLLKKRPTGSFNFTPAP

Binder	pKd
HIVEALETDV [PBK, Q96KB5]	below the threshold

biological target: DVL2, O14641; assay: holdup assay; design: key: below the threshold = too weak to quantify, mostly under pKd 3.1 to 4; settings: plain residues with an end cap or a label only (N-terminal biotin on a linker: ttds)
Sequence (O14641 260-359): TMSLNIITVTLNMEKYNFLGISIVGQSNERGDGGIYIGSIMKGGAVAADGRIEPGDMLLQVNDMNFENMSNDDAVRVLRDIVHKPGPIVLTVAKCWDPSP

Binder	pKd
HIVEALETDV [PBK, Q96KB5]	5.15

biological target: T14, SYNPO2L, Q9H987; assay: holdup assay; design: key: below the threshold = too weak to quantify, mostly under pKd 3.1 to 4; settings: plain residues with an end cap or a label only (N-terminal biotin on a linker: ttds)

Binder	pKd
HIVEALETDV [PBK, Q96KB5]	below the threshold
